Starred links: 1 amine or outer side, 2 acyl side, 3 side chain; linkers in the order of their positions; H or OH if unused. Positions of bridges follow the written chain, without caps; N, C: chain ends. Non-standard residues stand in square brackets, D forms with d. Groups on a side chain read outwards from the residue. *: point of attachment. Dip = N[C@H](C(=O)O)C(c1ccccc1)c1ccccc1; NPC = nipecotic acid (L-nipecotic acid); γGlu = O=C(O)[C@H](CCC(=O)[*:2])N[*:1]; Palmitoyl = CCCCCCCCCCCCCCCC(=O)*; NMeF = CN[C@@H](Cc1ccccc1)C(=O)O; αMeF = C[C@](N)(Cc1ccccc1)C(=O)O; β3hF = N[C@H](CC(=O)O)Cc1ccccc1; Isovaleryl = CC(C)CC(=O)*

Results on 15 molecules are retold here after patent US20200361992A1 (PROTAGONIST THERAPEUTICS, published 2020).

This test concerns the target T1, human ferroportin (SLC40A1) fused in frame with the GFP protein, stably expressed in HEK293 cells (human, UniProt Q9NP59 1-571).
T1 sequence (looked up): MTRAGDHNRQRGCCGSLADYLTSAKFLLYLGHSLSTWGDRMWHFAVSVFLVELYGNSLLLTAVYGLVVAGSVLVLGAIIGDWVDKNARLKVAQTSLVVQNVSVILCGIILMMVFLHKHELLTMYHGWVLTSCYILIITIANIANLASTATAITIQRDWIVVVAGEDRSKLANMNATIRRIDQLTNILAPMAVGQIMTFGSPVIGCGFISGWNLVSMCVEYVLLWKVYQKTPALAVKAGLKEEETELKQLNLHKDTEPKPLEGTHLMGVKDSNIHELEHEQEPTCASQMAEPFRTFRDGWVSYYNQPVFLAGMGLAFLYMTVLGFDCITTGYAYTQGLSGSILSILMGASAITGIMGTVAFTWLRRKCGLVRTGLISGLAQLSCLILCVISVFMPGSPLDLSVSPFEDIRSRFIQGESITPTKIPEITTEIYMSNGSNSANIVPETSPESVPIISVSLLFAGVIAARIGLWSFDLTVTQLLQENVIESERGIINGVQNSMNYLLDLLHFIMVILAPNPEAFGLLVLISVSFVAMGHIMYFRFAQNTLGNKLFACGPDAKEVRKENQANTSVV
The experiment in a line: cell-based or functional assay.

B1: Compd ID 214 (peptide)
peptide: Isovaleryl-DTHFPCIK([γGlu-Palmitoyl])[β3hF]C-NH2
modifications: disulfide 6-10
SMILES: CCCCCCCCCCCCCCCC(=O)N[C@@H](CCC(=O)NCCCC[C@@H]1NC(=O)[C@H]([C@@H](C)CC)NC(=O)[C@@H](NC(=O)[C@@H]2CCCN2C(=O)[C@H](Cc2ccccc2)NC(=O)[C@H](Cc2c[nH]cn2)NC(=O)[C@@H](NC(=O)[C@H](CC(=O)O)NC(=O)CC(C)C)[C@@H](C)O)CSSC[C@@H](C(N)=O)NC(=O)C[C@H](Cc2ccccc2)NC1=O)C(=O)O
Consider B1, for which the “FPN IC50” value came out at 36 nM.

B2: Compd ID 212 (peptide)
peptide: Isovaleryl-DTHFPCI[dK]([γGlu-Palmitoyl])[NMeF]GC-NH2
modifications: disulfide 6-11
SMILES: CCCCCCCCCCCCCCCC(=O)N[C@@H](CCC(=O)NCCCC[C@H]1NC(=O)[C@H]([C@@H](C)CC)NC(=O)[C@@H](NC(=O)[C@@H]2CCCN2C(=O)[C@H](Cc2ccccc2)NC(=O)[C@H](Cc2c[nH]cn2)NC(=O)[C@@H](NC(=O)[C@H](CC(=O)O)NC(=O)CC(C)C)[C@@H](C)O)CSSC[C@@H](C(N)=O)NC(=O)CNC(=O)[C@H](Cc2ccccc2)N(C)C1=O)C(=O)O
With B2, the “FPN IC50” value came out at 403 nM.

B3: Compd ID 207 (peptide)
peptide: Isovaleryl-DTHFPCIK([γGlu-Palmitoyl])FC-NH2
modifications: disulfide 6-10
SMILES: CCCCCCCCCCCCCCCC(=O)N[C@@H](CCC(=O)NCCCC[C@@H]1NC(=O)[C@H]([C@@H](C)CC)NC(=O)[C@@H](NC(=O)[C@@H]2CCCN2C(=O)[C@H](Cc2ccccc2)NC(=O)[C@H](Cc2c[nH]cn2)NC(=O)[C@@H](NC(=O)[C@H](CC(=O)O)NC(=O)CC(C)C)[C@@H](C)O)CSSC[C@@H](C(N)=O)NC(=O)[C@H](Cc2ccccc2)NC1=O)C(=O)O
With B3, the “FPN IC50” value stood at 64 nM.

B4: Compd ID 219 (peptide)
peptide: Isovaleryl-DTH[β3hF]PCIK([γGlu-Palmitoyl])[αMeF]C-NH2
modifications: disulfide 6-10
SMILES: CCCCCCCCCCCCCCCC(=O)N[C@@H](CCC(=O)NCCCC[C@@H]1NC(=O)[C@H]([C@@H](C)CC)NC(=O)[C@@H](NC(=O)[C@@H]2CCCN2C(=O)C[C@H](Cc2ccccc2)NC(=O)[C@H](Cc2c[nH]cn2)NC(=O)[C@@H](NC(=O)[C@H](CC(=O)O)NC(=O)CC(C)C)[C@@H](C)O)CSSC[C@@H](C(N)=O)NC(=O)[C@](C)(Cc2ccccc2)NC1=O)C(=O)O
For B4, the “FPN IC50” value came to 182 nM.

B5: Compd ID 210 (peptide)
peptide: Isovaleryl-DTHFPCIK([γGlu-Palmitoyl])FCK-NH2
modifications: disulfide 6-10
SMILES: CCCCCCCCCCCCCCCC(=O)N[C@@H](CCC(=O)NCCCC[C@@H]1NC(=O)[C@H]([C@@H](C)CC)NC(=O)[C@@H](NC(=O)[C@@H]2CCCN2C(=O)[C@H](Cc2ccccc2)NC(=O)[C@H](Cc2c[nH]cn2)NC(=O)[C@@H](NC(=O)[C@H](CC(=O)O)NC(=O)CC(C)C)[C@@H](C)O)CSSC[C@@H](C(=O)N[C@@H](CCCCN)C(N)=O)NC(=O)[C@H](Cc2ccccc2)NC1=O)C(=O)O
Consider B5, for which the “FPN IC50” value is 60 nM.

B6: Compd ID 218 (peptide)
peptide: Isovaleryl-DTH[NMeF]PCIK([γGlu-Palmitoyl])[αMeF]C-NH2
modifications: disulfide 6-10
SMILES: CCCCCCCCCCCCCCCC(=O)N[C@@H](CCC(=O)NCCCC[C@@H]1NC(=O)[C@H]([C@@H](C)CC)NC(=O)[C@@H](NC(=O)[C@@H]2CCCN2C(=O)[C@H](Cc2ccccc2)N(C)C(=O)[C@H](Cc2c[nH]cn2)NC(=O)[C@@H](NC(=O)[C@H](CC(=O)O)NC(=O)CC(C)C)[C@@H](C)O)CSSC[C@@H](C(N)=O)NC(=O)[C@](C)(Cc2ccccc2)NC1=O)C(=O)O
On to B6, for which the “FPN IC50” value was more than 3000 nM.

B7: Compd ID 215 (peptide)
peptide: Isovaleryl-DTHFPCIK([γGlu-Palmitoyl])[αMeF]C-NH2
modifications: disulfide 6-10
SMILES: CCCCCCCCCCCCCCCC(=O)N[C@@H](CCC(=O)NCCCC[C@@H]1NC(=O)[C@H]([C@@H](C)CC)NC(=O)[C@@H](NC(=O)[C@@H]2CCCN2C(=O)[C@H](Cc2ccccc2)NC(=O)[C@H](Cc2c[nH]cn2)NC(=O)[C@@H](NC(=O)[C@H](CC(=O)O)NC(=O)CC(C)C)[C@@H](C)O)CSSC[C@@H](C(N)=O)NC(=O)[C@](C)(Cc2ccccc2)NC1=O)C(=O)O
Consider B7, for which the “FPN IC50” value is 96 nM.

B8: Compd ID 217 (peptide)
peptide: Isovaleryl-DTH[αMeF]PCIK([γGlu-Palmitoyl])[αMeF]C-NH2
modifications: disulfide 6-10
SMILES: CCCCCCCCCCCCCCCC(=O)N[C@@H](CCC(=O)NCCCC[C@@H]1NC(=O)[C@H]([C@@H](C)CC)NC(=O)[C@@H](NC(=O)[C@@H]2CCCN2C(=O)[C@](C)(Cc2ccccc2)NC(=O)[C@H](Cc2c[nH]cn2)NC(=O)[C@@H](NC(=O)[C@H](CC(=O)O)NC(=O)CC(C)C)[C@@H](C)O)CSSC[C@@H](C(N)=O)NC(=O)[C@](C)(Cc2ccccc2)NC1=O)C(=O)O
For the molecule B8, the “FPN IC50” value is more than 3000 nM.

B9: Compd ID 206 (peptide)
peptide: Isovaleryl-DTHFPCIK([γGlu-Palmitoyl])FEC-NH2
modifications: disulfide 6-11
SMILES: CCCCCCCCCCCCCCCC(=O)N[C@@H](CCC(=O)NCCCC[C@@H]1NC(=O)[C@H]([C@@H](C)CC)NC(=O)[C@@H](NC(=O)[C@@H]2CCCN2C(=O)[C@H](Cc2ccccc2)NC(=O)[C@H](Cc2c[nH]cn2)NC(=O)[C@@H](NC(=O)[C@H](CC(=O)O)NC(=O)CC(C)C)[C@@H](C)O)CSSC[C@@H](C(N)=O)NC(=O)[C@H](CCC(=O)O)NC(=O)[C@H](Cc2ccccc2)NC1=O)C(=O)O
Regarding B9, the “FPN IC50” value came out at 267 nM.

B10: Compd ID 220 (peptide)
peptide: Isovaleryl-DTHWPCIK([γGlu-Palmitoyl])[αMeF]C-NH2
modifications: disulfide 6-10
SMILES: CCCCCCCCCCCCCCCC(=O)N[C@@H](CCC(=O)NCCCC[C@@H]1NC(=O)[C@H]([C@@H](C)CC)NC(=O)[C@@H](NC(=O)[C@@H]2CCCN2C(=O)[C@H](Cc2c[nH]c3ccccc23)NC(=O)[C@H](Cc2c[nH]cn2)NC(=O)[C@@H](NC(=O)[C@H](CC(=O)O)NC(=O)CC(C)C)[C@@H](C)O)CSSC[C@@H](C(N)=O)NC(=O)[C@](C)(Cc2ccccc2)NC1=O)C(=O)O
With B10, the “FPN IC50” value turned out to be 871 nM.

B11: Compd ID 204 (peptide)
peptide: Isovaleryl-DTHFPCIK([γGlu-Palmitoyl])FEPRC-NH2
modifications: disulfide 6-13
SMILES: CCCCCCCCCCCCCCCC(=O)N[C@@H](CCC(=O)NCCCC[C@@H]1NC(=O)[C@H]([C@@H](C)CC)NC(=O)[C@@H](NC(=O)[C@@H]2CCCN2C(=O)[C@H](Cc2ccccc2)NC(=O)[C@H](Cc2c[nH]cn2)NC(=O)[C@@H](NC(=O)[C@H](CC(=O)O)NC(=O)CC(C)C)[C@@H](C)O)CSSC[C@@H](C(N)=O)NC(=O)[C@H](CCCNC(=N)N)NC(=O)[C@@H]2CCCN2C(=O)[C@H](CCC(=O)O)NC(=O)[C@H](Cc2ccccc2)NC1=O)C(=O)O
As for B11, the “FPN IC50” value was found to be 14 nM.

With Isovaleryl-DTHF[NPC]CIK([γGlu-Palmitoyl])[αMeF]C-NH2 (disulfide 6-10) [Compd ID 221], the “FPN IC50” value was found to be 79 nM.

B12: Compd ID 216 (peptide)
peptide: Isovaleryl-DTH[Dip]PCIK([γGlu-Palmitoyl])[αMeF]C-NH2
modifications: disulfide 6-10
SMILES: CCCCCCCCCCCCCCCC(=O)N[C@@H](CCC(=O)NCCCC[C@@H]1NC(=O)[C@H]([C@@H](C)CC)NC(=O)[C@@H](NC(=O)[C@@H]2CCCN2C(=O)[C@@H](NC(=O)[C@H](Cc2c[nH]cn2)NC(=O)[C@@H](NC(=O)[C@H](CC(=O)O)NC(=O)CC(C)C)[C@@H](C)O)C(c2ccccc2)c2ccccc2)CSSC[C@@H](C(N)=O)NC(=O)[C@](C)(Cc2ccccc2)NC1=O)C(=O)O
For B12, the “FPN IC50” value stood at 16 nM.

B13: Compd ID 203 (peptide)
peptide: Isovaleryl-DTHFPCIK([γGlu-Palmitoyl])FEPRSC-NH2
modifications: disulfide 6-14
SMILES: CCCCCCCCCCCCCCCC(=O)N[C@@H](CCC(=O)NCCCC[C@@H]1NC(=O)[C@H]([C@@H](C)CC)NC(=O)[C@@H](NC(=O)[C@@H]2CCCN2C(=O)[C@H](Cc2ccccc2)NC(=O)[C@H](Cc2c[nH]cn2)NC(=O)[C@@H](NC(=O)[C@H](CC(=O)O)NC(=O)CC(C)C)[C@@H](C)O)CSSC[C@@H](C(N)=O)NC(=O)[C@H](CO)NC(=O)[C@H](CCCNC(=N)N)NC(=O)[C@@H]2CCCN2C(=O)[C@H](CCC(=O)O)NC(=O)[C@H](Cc2ccccc2)NC1=O)C(=O)O
As for B13, the “FPN IC50” value was 15 nM.

B14: Compd ID 205 (peptide)
peptide: Isovaleryl-DTHFPCIK([γGlu-Palmitoyl])FEPC-NH2
modifications: disulfide 6-12
SMILES: CCCCCCCCCCCCCCCC(=O)N[C@@H](CCC(=O)NCCCC[C@@H]1NC(=O)[C@H]([C@@H](C)CC)NC(=O)[C@@H](NC(=O)[C@@H]2CCCN2C(=O)[C@H](Cc2ccccc2)NC(=O)[C@H](Cc2c[nH]cn2)NC(=O)[C@@H](NC(=O)[C@H](CC(=O)O)NC(=O)CC(C)C)[C@@H](C)O)CSSC[C@@H](C(N)=O)NC(=O)[C@@H]2CCCN2C(=O)[C@H](CCC(=O)O)NC(=O)[C@H](Cc2ccccc2)NC1=O)C(=O)O
B14: the “FPN IC50” value came to 64 nM.
